{"source": "patent EP1988165A1", "about": "(THE UNIVERSITY OF NORTH CAROLINA AT CHAPEL HILL, dated 2008)", "key": {"myc-epitope tagged APC2": {"molecular_target": "myc-epitope tagged APC2 (mouse, UniProt Q8BZQ7 15-837, limits assumed)", "sequence (Q8BZQ7 15-837 limits assumed)": "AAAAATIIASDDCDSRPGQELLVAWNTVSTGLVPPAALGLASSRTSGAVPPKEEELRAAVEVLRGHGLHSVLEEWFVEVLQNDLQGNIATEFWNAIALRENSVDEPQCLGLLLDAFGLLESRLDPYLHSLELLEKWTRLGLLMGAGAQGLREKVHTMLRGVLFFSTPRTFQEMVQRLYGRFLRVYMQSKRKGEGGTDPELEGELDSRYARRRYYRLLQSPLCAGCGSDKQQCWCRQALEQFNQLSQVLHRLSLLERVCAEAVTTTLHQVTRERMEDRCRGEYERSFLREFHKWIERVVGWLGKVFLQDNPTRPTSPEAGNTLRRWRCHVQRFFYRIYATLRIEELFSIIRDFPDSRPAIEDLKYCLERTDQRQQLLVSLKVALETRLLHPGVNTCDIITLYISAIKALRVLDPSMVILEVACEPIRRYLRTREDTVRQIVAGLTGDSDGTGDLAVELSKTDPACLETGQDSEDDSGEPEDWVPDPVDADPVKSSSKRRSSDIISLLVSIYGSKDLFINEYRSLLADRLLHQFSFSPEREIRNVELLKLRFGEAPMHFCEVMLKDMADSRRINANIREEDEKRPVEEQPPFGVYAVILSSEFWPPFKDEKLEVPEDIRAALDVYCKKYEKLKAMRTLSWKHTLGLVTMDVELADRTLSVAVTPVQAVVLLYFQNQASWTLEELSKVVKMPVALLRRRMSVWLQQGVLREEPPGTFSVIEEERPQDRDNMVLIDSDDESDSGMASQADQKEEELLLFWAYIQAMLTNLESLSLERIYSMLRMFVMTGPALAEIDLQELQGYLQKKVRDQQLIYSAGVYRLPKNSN", "test": "co-immunoprecipitation from transfected HeLa cells"}, "[1]": {"molecular_target": "T1, CUL-C (ORF YJL047c) fused in-frame with the Gal4 DNA binding domain (pGBT8) (yeast; Saccharomyces cerevisiae, UniProt P04386 1-147; P47050 1-842)", "test": "yeast two-hybrid, histidine reporter (FIG. 5D)"}, "[2]": {"molecular_target": "T2, CUL-B (ORF YGR003w) fused in-frame with the Gal4 DNA binding domain (pGBT8) (yeast; Saccharomyces cerevisiae, UniProt P04386 1-147; P53202 1-744)", "test": "yeast two-hybrid, histidine reporter (FIG. 5D)"}, "[3]": {"molecular_target": "T3, CDC53 fused in-frame with the Gal4 DNA binding domain (pGBT8-CDC53) (yeast; Saccharomyces cerevisiae, UniProt P04386 1-147; Q12018 1-815)", "test": "yeast two-hybrid, histidine reporter (FIG. 5D)"}, "[4]": {"molecular_target": "T4, ScAPC2 fused in-frame with the GAL4 activation domain (yeast; Saccharomyces cerevisiae, UniProt Q12440 1-853)", "T4 construct": "also called yeast APC2", "T4 sequence (looked up)": "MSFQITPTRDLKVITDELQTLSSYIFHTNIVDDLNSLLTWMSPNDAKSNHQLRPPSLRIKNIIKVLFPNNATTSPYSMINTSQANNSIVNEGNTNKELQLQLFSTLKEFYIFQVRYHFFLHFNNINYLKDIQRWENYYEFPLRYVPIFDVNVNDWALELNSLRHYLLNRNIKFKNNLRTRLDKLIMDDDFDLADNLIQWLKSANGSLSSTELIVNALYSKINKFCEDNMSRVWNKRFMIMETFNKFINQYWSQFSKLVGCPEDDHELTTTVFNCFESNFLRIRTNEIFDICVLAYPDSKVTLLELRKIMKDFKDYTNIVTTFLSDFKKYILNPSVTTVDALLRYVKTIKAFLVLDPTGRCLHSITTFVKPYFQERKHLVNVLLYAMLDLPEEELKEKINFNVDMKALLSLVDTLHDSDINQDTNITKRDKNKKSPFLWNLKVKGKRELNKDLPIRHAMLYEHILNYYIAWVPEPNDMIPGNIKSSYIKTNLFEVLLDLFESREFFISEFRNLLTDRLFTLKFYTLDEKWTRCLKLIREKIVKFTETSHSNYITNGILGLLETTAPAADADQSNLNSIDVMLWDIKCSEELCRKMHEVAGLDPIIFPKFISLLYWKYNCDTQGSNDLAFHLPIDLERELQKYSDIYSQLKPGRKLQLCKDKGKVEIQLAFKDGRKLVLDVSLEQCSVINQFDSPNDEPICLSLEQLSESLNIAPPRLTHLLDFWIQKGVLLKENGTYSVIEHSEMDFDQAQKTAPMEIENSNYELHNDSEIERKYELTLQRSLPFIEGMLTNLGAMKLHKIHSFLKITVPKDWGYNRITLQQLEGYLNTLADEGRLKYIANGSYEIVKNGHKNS", "test": "yeast two-hybrid (FIG. 5D)"}, "[5]": {"molecular_target": "T5, human ROC1 fused in-frame with the DNA activation domain of Gal4 (pGAD-ROC1) (yeast; human, UniProt P62877 1-108)", "T5 construct": "Yeast two-hybrid prey; also called regulator of cullins", "T5 sequence (P62877 whole entry, the tested form may be a part)": "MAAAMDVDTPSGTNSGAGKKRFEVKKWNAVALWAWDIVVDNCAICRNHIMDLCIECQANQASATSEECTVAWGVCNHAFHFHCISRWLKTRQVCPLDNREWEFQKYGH", "test": "yeast two-hybrid; library screen with mouse cullin 4A as bait and FIG. 1A"}, "[6]": {"molecular_target": "T1, CUL-C (ORF YJL047c) fused in-frame with …", "test": "yeast two-hybrid (FIG. 5D)"}, "[7]": {"molecular_target": "T2, CUL-B (ORF YGR003w) fused in-frame with …", "test": "yeast two-hybrid (FIG. 5D)"}, "[8]": {"molecular_target": "T3, CDC53 fused in-frame with the Gal4 DNA …", "test": "yeast two-hybrid (FIG. 5D)"}, "[9]": {"molecular_target": "T6, mouse APC2 fused to the Gal4 DNA binding domain (yeast; mouse, UniProt P04386 1-147; Q8BZQ7 15-837, limits assumed)", "T6 construct": "also called GAL4BD-APC2", "test": "yeast two-hybrid, -LWH medium with 5 mM 3-AT (FIG. 4E)"}, "[10]": {"molecular_target": "T7, HA-epitope tagged human ROC1 (human, UniProt P62877 1-108)", "T7 construct": "Expressed by transfection in mammalian cells (Saos-2, HeLa, 293T); also called HA-ROC1", "T7 sequence (P62877 whole entry)": "as the sequence (P62877 whole entry, the tested form may be a part) above", "test": "co-immunoprecipitation with anti-HA from [35S]-methionine labeled transfected cells (FIG. 3A)"}, "[11]": {"molecular_target": "human ROC1, untagged (endogenous in HeLa and Saos-2 cells, or in vitro translated) (human, UniProt P62877 1-108)", "sequence (P62877 whole entry)": "as the sequence (P62877 whole entry, the tested form may be a part) above", "test": "immunopurification of ROC1 immunocomplexes from HeLa cells and protein microsequencing"}}, "data": [{"binder": "HA tagged human ROC2 (other, not shown: small tags and cut ends, Transfected protein migrates as a doublet; also called HA-ROC2) ADVEDGEETCALASHSGSSGSTSGGDKMFSLKKWNPVAMWSWDVECDTCAICRVQVMDACLRCQAENKQEDCVVVWGECNHSFHNCCMSLWVKQNNRCPLCQQDWVVQRIGK", "values": [{"measurement": "binding result", "setting": "myc-epitope tagged APC2", "result": "no binding"}]}, {"binder": "ScAPC11 fused in-frame with the GAL4 activation domain (pGAD) (other, Saccharomyces cerevisiae, UniProt Q12157 1-165, looked up, not shown: large carriers, also called yeast APC11) MKVKINEVHSVFAWSWHIPSTSDEDAANNDPIGNDEDEDVCGICRASYNGTCPSCKFPGDQCPLVIGLCHHNFHDHCIYRWLDTPTSKGLCPMCRQTFQLQKGLAINDAHVQKFVEIVSRRREEMIEEGVAEEFVDFDEPIRQNTDNPIGRQQVDTILDEDFLLR", "values": [{"measurement": "binding result", "setting": "[1]", "result": "binds"}, {"measurement": "binding result", "setting": "[2]", "result": "no binding"}, {"measurement": "binding result", "setting": "[3]", "result": "no binding"}]}, {"binder": "ScROC1 fused in-frame with the Gal4 DNA binding domain (pGBT8-ScROC1) (other, yeast;Saccharomyces cerevisiae, UniProt P04386 1-147, looked up) MKLLSSIEQACDICRLKKLKCSKEKPKCAKCLKNNWECRYSPKTKRSPLTRAHLTEVESRLERLEQLFLLIFPREDLDMILKMDSLQDIKALLTGLFVQDNVNKDAVTDRLASVETDMPLTLRQHRISATSSSEESSNKGQRQLTVSMSNEVDRMDVDEDESQNIAQSSNQSAPVETKKKRFEIKKWTAVAFWSWDIAVDNCAICRNHIMEPCIECQPKAMTDTDNECVAAWGVCNHAFHLHCINKWIKTRDACPLDNQPWQLARCGR", "values": [{"measurement": "binding result", "setting": "[4]", "result": "binds"}]}, {"binder": "full-length mouse cullin 4A fused in frame with the DNA-binding domain of Gal4 (other, yeast;mouse, UniProt P04386 1-147, looked up, Yeast two-hybrid bait, also used for the library screen; also called mouse CUL4A; CUL4A) MKLLSSIEQACDICRLKKLKCSKEKPKCAKCLKNNWECRYSPKTKRSPLTRAHLTEVESRLERLEQLFLLIFPREDLDMILKMDSLQDIKALLTGLFVQDNVNKDAVTDRLASVETDMPLTLRQHRISATSSSEESSNKGQRQLTVSMADEGPRKGSVSALMGRTNGLTKPAALAGGPAKPGGTGGSRKLVIKNFRDRPRLPDNYTQDTWRKLHEAVKAIQSSTSIRYNLEELYQAVENLCSHKVSPTLYKQLRQVCEDHVQAQILPFREDSLDSVLFLKKINTCWQDHCRQMIMIRSIFLFLDRTYVLQNSMLPSIWDMGLELFRNHIISDRMVQSKTIDGILLLIGRERSGEAVDRSLLRSLLSMLSDLQVYKDSFELKFLEETNCLYAAEGQRLMQDREVPEYLNHVSKRLEEEADRVITYLDHSTQKPLIACVEKQLLGEHLTAILQKGLEHLLDENRVPDLTQMYQLFSRVKGGQHALLQHWSEYIKTFGTTIVINPEKDKDMVQDLLDFKDKVDHVVEVCFQRNERFINLMKESFETFINKRPNKPAELIAKHVDSKLRAGNKEATDEELERILDKIMILFRFIHGKDVFEAFYKKDLAKRLLVGKSASVDAEKSMLSKLKHECGAAFTSKLEGMFKDMELSKDIMVHFKQHMQNQSAPGPIDLTVNILTMGYWPTYTPMEVHLPPEMVRLQEVFKTFYLGKHSGRKLQWQTTLGHAVLKADFKEGKKEFQVSLFQTLVLLMFNEGDGFSFEEIKMATGIEDSELRRTLQSLACGKARVLIKSPKGKEVEDGDKFIFNADFKHKLFRIKINQIQMKETVEEQVSTTERVFQDRQYQIDAAIVRIMKMRKTLGHNLLVSELYNQLKFPVKPGDLKKRIESLIDRDYMERDKDSPNQYHYVA", "values": [{"measurement": "binding result", "setting": "[5]", "result": "binds"}]}, {"binder": "ScROC1 fused in-frame with the GAL4 activation domain (pGAD-ScROC1) (other, Saccharomyces cerevisiae, UniProt Q08273 1-121, looked up, not shown: large carriers, also called yeast ROC1; ROC1p) MSNEVDRMDVDEDESQNIAQSSNQSAPVETKKKRFEIKKWTAVAFWSWDIAVDNCAICRNHIMEPCIECQPKAMTDTDNECVAAWGVCNHAFHLHCINKWIKTRDACPLDNQPWQLARCGR", "values": [{"measurement": "binding result", "setting": "[6]", "result": "binds"}, {"measurement": "binding result", "setting": "[7]", "result": "binds"}, {"measurement": "binding result", "setting": "[8]", "result": "binds"}]}, {"binder": "full length human ROC2 fused in-frame with the yeast Gal4 DNA activation domain (other, not shown: large carriers, Yeast two-hybrid prey) MFSLKKWNPVAMWSWDVECDTCAICRVQVMDACLRCQAENKQEDCVVVWGECNHSFHNCCMSLWVKQNNRCPLCQQDWVVQRIGK", "values": [{"measurement": "binding result", "setting": "[9]", "result": "no binding"}]}, {"binder": "myc-epitope tagged mouse CUL4A (other, UniProt Q3TCH7 1-759, looked up, not shown: small tags and cut ends, also called myc-mCUL4A; cullin 4A) MADEGPRKGSVSALMGRTNGLTKPAALAGGPAKPGGTGGSRKLVIKNFRDRPRLPDNYTQDTWRKLHEAVKAIQSSTSIRYNLEELYQAVENLCSHKVSPTLYKQLRQVCEDHVQAQILPFREDSLDSVLFLKKINTCWQDHCRQMIMIRSIFLFLDRTYVLQNSMLPSIWDMGLELFRNHIISDRMVQSKTIDGILLLIGRERSGEAVDRSLLRSLLSMLSDLQVYKDSFELKFLEETNCLYAAEGQRLMQDREVPEYLNHVSKRLEEEADRVITYLDHSTQKPLIACVEKQLLGEHLTAILQKGLEHLLDENRVPDLTQMYQLFSRVKGGQHALLQHWSEYIKTFGTTIVINPEKDKDMVQDLLDFKDKVDHVVEVCFQRNERFINLMKESFETFINKRPNKPAELIAKHVDSKLRAGNKEATDEELERILDKIMILFRFIHGKDVFEAFYKKDLAKRLLVGKSASVDAEKSMLSKLKHECGAAFTSKLEGMFKDMELSKDIMVHFKQHMQNQSAPGPIDLTVNILTMGYWPTYTPMEVHLPPEMVRLQEVFKTFYLGKHSGRKLQWQTTLGHAVLKADFKEGKKEFQVSLFQTLVLLMFNEGDGFSFEEIKMATGIEDSELRRTLQSLACGKARVLIKSPKGKEVEDGDKFIFNADFKHKLFRIKINQIQMKETVEEQVSTTERVFQDRQYQIDAAIVRIMKMRKTLGHNLLVSELYNQLKFPVKPGDLKKRIESLIDRDYMERDKDSPNQYHYVA", "values": [{"measurement": "binding result", "setting": "[10]", "result": "binds"}]}, {"binder": "human CUL2, endogenous in HeLa cells (other, UniProt Q13617 1-745, looked up, also called cullin 2) MSLKPRVVDFDETWNKLLTTIKAVVMLEYVERATWNDRFSDIYALCVAYPEPLGERLYTETKIFLENHVRHLHKRVLESEEQVLVMYHRYWEEYSKGADYMDCLYRYLNTQFIKKNKLTEADLQYGYGGVDMNEPLMEIGELALDMWRKLMVEPLQAILIRMLLREIKNDRGGEDPNQKVIHGVINSFVHVEQYKKKFPLKFYQEIFESPFLTETGEYYKQEASNLLQESNCSQYMEKVLGRLKDEEIRCRKYLHPSSYTKVIHECQQRMVADHLQFLHAECHNIIRQEKKNDMANMYVLLRAVSTGLPHMIQELQNHIHDEGLRATSNLTQENMPTLFVESVLEVHGKFVQLINTVLNGDQHFMSALDKALTSVVNYREPKSVCKAPELLAKYCDNLLKKSAKGMTENEVEDRLTSFITVFKYIDDKDVFQKFYARMLAKRLIHGLSMSMDSEEAMINKLKQACGYEFTSKLHRMYTDMSVSADLNNKFNNFIKNQDTVIDLGISFQIYVLQAGAWPLTQAPSSTFAIPQELEKSVQMFELFYSQHFSGRKLTWLHYLCTGEVKMNYLGKPYVAMVTTYQMAVLLAFNNSETVSYKELQDSTQMNEKELTKTIKSLLDVKMINHDSEKEDIDAESSFSLNMNFSSKRTKFKITTSMQKDTPQEMEQTRSAVDEDRKMYLQAAIVRIMKARKVLRHNALIQEVISQSRARFNPSISMIKKCIEVLIDKQYIERSQASADEYSYVA", "values": [{"measurement": "binding result", "setting": "[11]", "result": "binds"}]}]}
